In PMC4467374:
No end group written: not given here. Me3 = tri-methyl on lysine side chain

Key:
[1] = biological target: tandem tudor domain (TTD) of UHRF1; test: AlphaScreen or HTRF
[2] = biological target: tandem tudor domain (TTD) of UHRF1; test: fluorescence polarisation

IC50 [1] [µM]	IC50 [2] [µM]	Binder
6	12	ARTKQTARKSTGEW (here or on the partner: trimethyl-lysine at K9) [H3K9me3 competition peptide (high affinity competitor)]
95		ARTK(Me3)QTARKSTGEW [H3K4me3 competition peptide (low affinity competitor)]
